Data reported in patent US20130022611A1, “METHODS AND COMPOSITIONS FOR MODULATING HEPSIN ACTIVATION OF UROKINASE-TYPE PLASMINOGEN ACTIVATOR” (Genentech, Inc., priority 2006, published 2013).

Columns and labels:
[1] = target: T1, pro-uPA (Homo sapiens, UniProt P00749); assay: First-order kinetics of pro-uPA activation by serine proteases; assay type: biochemical; conditions: for Added pro-uPA converted during the experiment / First-order rate constant k ± SD: 30 nM pro-uPA, 3 nM enzyme; for First-order rate constant k ± SD: room temperature, 5 experiments; for Efficiency of pro-uPA activation compared to matriptase: kcat/Km ratio
T1 construct: time-dependent cleavage of the single-chain form into the two-chain form; purchased Cortex Biochem (San Leandro, Calif.)
Description: The Km and kcat values for pro-uPA activation could not be accurately determined because the pro-uPA stock solution from the supplier (0.8 mg/ml) was not sufficiently high. Therefore, we chose to determine the first-order rate constant k as a measure of pro-uPA conversion efficiency. It was ensured that the pro-uPA concentration used (30 nM) was in the range of first-order kinetics for the enzymes tested, i.e. hepsin, plasmin and matriptase. The rate of uPA formation by these enzymes was linear up to 200 nM of pro-uPA. Pro-uPA (30 nM) was added to the enzymes (3 nM) in Hepes buffer to start the reaction at room temperature. At various time points, 50-μl aliquots were removed and added to 150 μl of 667 nM HAI-2 (final concentration in 250 μl was 400 nM) in Hepes buffer to stop further pro-uPA cleavage. […] Our results on HAI-2 inhibition of plasmin and HGFA (data not shown) were consistent with the published data (26,27). After addition of 50 μl of 2.5 mM S2444, the increase in absorbance at 405 nm was measured on a kinetic microplate reader. The concentration of uPA in each aliquot was calculated from a standard curve of enzymatically converted pro-uPA. The data were expressed as the decrease in the concentration of pro-uPA (log [pro-uPA]) as function of time. The first-order rate constant k was calculated from the slope using the equation
log [S]=−(k/2.3)t+log [S]0
where [S] is the concentration of pro-uPA and [S]0 is the initial pro-uPA concentration. The catalytic efficiency, kcat/Km, was then calculated using the known enzyme concentration [E] and the relationship k=(kcat/Km)[E]. The values are the average of 5 experiments±SD.

[2] = target: T2, pro-tPA (Homo sapiens, UniProt P00750); assay: Pro-tPA cleavage analysed by SDS-PAGE; assay type: biochemical; conditions: 1.5 μM pro-tPA, 15 nM enzyme, 10 and 60 min
T2 construct: purchased Biodesign International (Saco, Me.)
Description: Pro-uPA at a concentration of 1.5 μM was incubated with 15 nM hepsin or 15 nM plasmin in Hepes buffer at room temperature. […] The samples were analyzed by SDS-PAGE using a 4-20% gradient gel (Invitrogen; Carlsbad, Calif.). Protein was visualized after staining with SimplyBlue Safe Stain (Invitrogen). Experiments with pro-tPA (1.5 μM) were carried out identically, except that the buffer used was 50 mM sodium phosphate pH 7.5, 200 mM arginine, 0.01% Tween-20.

[3] = system: LnCaP-34 cells (hepsin-overexpressing); assay: Pro-uPA activation by LnCaP-34 cells (two-stage enzymatic assay); assay type: cell-based, human
Description: (§1) Confluent LnCaP-34 and LnCaP-17 cells were washed with HBSA-Glucose buffer (20 mM Hepes pH 7.5, 150 mM NaCl, 5 mM CaCl2, 0.05 mg/ml BSA, 5 mM glucose) and 0.8 ml of 100 nM pro-uPA in pre-warmed HBSA-Glucose buffer was added to the cell layers. The inhibitors KD1 or HI-10331 were added to give final concentrations of 1 μM and 10 μM, respectively. The culture plates were kept at 37° C. and 50 μl samples were withdrawn at different time points, supplemented with 0.2 ml of […] S2444 in Hepes buffer and the increase in absorbance at 405 nm measured on a kinetic microplate reader. Cell numbers were determined at the end of the experiments. The concentration of formed uPA in each sample was calculated from a standard curve of enzymatically converted pro-uPA and normalized to 10^6 cells. After subtracting the background levels of uPA formed in the absence of cell layer, the linear rates of uPA formation/10^6 cells were determined.

[4] = system: LnCaP-17 cells; assay: Pro-uPA activation by LnCaP-17 cells (two-stage enzymatic assay); assay type: cell-based, human
Description: as §1

[5] = target: T3, uPA (Homo sapiens, UniProt P00749); assay: Chromogenic activity towards S2444 of samples withdrawn from LnCaP cell layers; assay type: biochemical; conditions: data not shown
T3 construct: two-chain form consisting of the 20 kDa A-chain and the 30 kDa B-chain (protease domain); purchased American Diagnostica (Greenwich, Conn.)
Description: as §1

[6] = system: LnCaP-34 cells (hepsin-overexpressing); assay: Pro-uPA conversion by LnCaP-34 cells, immunoblotting; assay type: cell-based, human; conditions: LnCaP-34, 30 nM pro-uPA, 1 h, 3 h, 5 h, 37° C.
Description: For immunoblotting experiments, confluent LnCaP-34 cell layers were washed as above and incubated with 30 nM pro-uPA at 37° C. After 1 hr, 3 hr and 5 hr, aliquots were taken and immediately added to SDS sample buffer. The proteins were separated by SDS-PAGE and transferred onto nitrocellulose filters using the Bio-Rad Semi Dry Transfer system. Pro-uPA and uPA were visualized by using a rabbit polyclonal anti-uPA antibody (Cell Sciences; Canton, Mass.) followed by HRP-conjugated anti-rabbit antibody (Jackson ImmunoResearch Laboratory; West Grove, Pa.) and ECL (GE Healthcare; Piscataway, N.J.) enhancement.

[7] = target: T3, uPA; conditions: reference 21; cited from earlier work
[8] = target: T3, uPA; assay: Enzymatic assay of uPA with chromogenic substrate S2444; assay type: biochemical; conditions: 10 nM uPA, S2444 at Km; read-out: Ki* (apparent equilibrium dissociation constant) ± SD
Description: The reversible active site inhibitor HI-10331 (Genentech, Inc.) (having the molecule structure depicted in FIG. 10, and disclosed in U.S. Pat. No. 6,472,393) or HAI-2 were incubated with 0.5 nM hepsin, 0.5 nM matriptase and 10 nM uPA for 30 min in Hepes buffer (20 mM Hepes, pH 7.5, 150 mM NaCl, 5 mM CaCl2, 0.01% Triton X-100) at room temperature. The chromogenic substrates S2366 (for hepsin), S2765 (for matriptase) and S2444 (for uPA) were added at a concentration corresponding to their respective Km values, which were determined in separate experiments. After substrate addition, the linear rates of the increase in absorbance at 405 nm was measured on a kinetic microplate reader (Molecular Devices, Sunnyvale, Calif.).
The Ki values were calculated according to the relationship Ki=IC50/(1+[S]/Km) (23) using the experimentally determined IC50 and Km values for each enzyme-substrate pair. For HAI-2, the apparent Ki values (Ki^*) were determined by fitting the data to the equation for tight binding inhibition (24,25).

T2 sequence (P00750 36-562): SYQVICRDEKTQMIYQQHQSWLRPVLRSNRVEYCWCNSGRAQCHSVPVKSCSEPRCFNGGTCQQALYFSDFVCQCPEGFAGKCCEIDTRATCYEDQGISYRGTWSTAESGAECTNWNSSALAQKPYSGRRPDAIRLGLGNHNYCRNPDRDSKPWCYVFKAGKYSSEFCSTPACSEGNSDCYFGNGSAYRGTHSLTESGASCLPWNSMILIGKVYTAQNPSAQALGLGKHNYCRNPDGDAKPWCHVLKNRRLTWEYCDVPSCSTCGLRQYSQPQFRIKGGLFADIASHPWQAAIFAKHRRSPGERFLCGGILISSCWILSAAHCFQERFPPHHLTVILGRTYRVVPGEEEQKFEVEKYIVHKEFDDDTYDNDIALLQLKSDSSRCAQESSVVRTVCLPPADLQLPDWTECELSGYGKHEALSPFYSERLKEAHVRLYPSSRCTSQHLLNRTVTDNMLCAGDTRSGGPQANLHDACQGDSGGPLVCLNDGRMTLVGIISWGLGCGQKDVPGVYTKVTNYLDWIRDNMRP

Hepsin: soluble His-tagged extracellular domain of human hepsin (Arg45-Leu417), baculovirus expressed
Added pro-uPA converted during the experiment [1]: about 70%
First-order rate constant k ± SD [1]: 87.1 ± 11.3 10^−3 min^−1
Efficiency of pro-uPA activation compared to matriptase [1]: about 6 fold
Cleavage of pro-tPA [2]: does not cleave

KD1: Kunitz domain-1 inhibitor derived from HAI-1B, produced in E. coli (TEDYCLASNKVGRCRGSFPRWYYDPTEQICKSFVYGGCLGNKNNYLREEECILACRGV)
Inhibition of pro-uPA cleavage ([3]; LnCaP-34, 1 μM KD1): almost completely inhibited
Rate of pro-uPA activation per 10^6 cells ± SD ([3]; LnCaP-34, 1 μM KD1, 100 nM pro-uPA, 37° C.): 0.2 ± 0.1 nM uPA hr^−1
Inhibition of pro-uPA cleavage ([4]; LnCaP-17, 1 μM KD1): almost completely inhibited
Rate of pro-uPA activation per 10^6 cells ± SD ([4]; LnCaP-17, 1 μM KD1, 100 nM pro-uPA, 37° C.): 0.2 ± 0.2 nM uPA hr^−1
Inhibition of chromogenic activity of the withdrawn samples [5]: not inhibited
Inhibition of pro-uPA cleavage (immunoblot) [6]: strongly inhibited
Inhibition of uPA [7]: does not inhibit

B1: HAI-2: recombinantly expressed soluble hepatocyte growth factor activator inhibitor-2, a bi-Kunitz inhibitor (protein)
chain: ADRERSIHDFCLVSKVVGRCRASMPRWWYNVTDGSCQLFVYGGCDGNSNNYLTKEECLKKCATVTENATGDLATSRNAADSSVPSAPRRQDSEDHSSDMFNYEEYCTANAVTGPCRASFPRWYFDVERNSCNNFIYGGCRGNKNSYRSEEACMLRCFRQQENPPLPLGSK
Ki [8]: > 1000 nM

B2: Matriptase: matriptase protease domain expressed in E. coli (protein)
chain: VVGGTDADEGEWPWQVSLHALGQGHICGASLISPNWLVSAAHCYIDDRGFRYSDPTQWTAFLGLHDQSQRSAPGVQERRLKRIISHPFFNDFTFDYDIALLELEKPAEYSSMVRPICLPDASHVFPAGKAIWVTGWGHTQYGGTGALILQKGEIRVINQTTCENLLPQQITPRMMCVGFLSGGVDSCQGDSGGPLSSVEADGRIFQAGVVSWGDGCAQRNKPGVYTRLPLFRDWIKENTGV
First-order rate constant k ± SD [1]: 14.2 ± 4.9 10^−3 min^−1

B3: Plasmin: Lys-plasmin from Heamatologic Technologies Inc., known pro-uPA activator (protein)
chain: KVYLSECKTGNGKNYRGTMSKTKNGITCQKWSSTSPHRPRFSPATHPSEGLEENYCRNPDNDPQGPWCYTTDPEKRYDYCDILECEEECMHCSGENYDGKISKTMSGLECQAWDSQSPHAHGYIPSKFPNKNLKKNYCRNPDRELRPWCFTTDPNKRWELCDIPRCTTPPPSSGPTYQCLKGTGENYRGNVAVTVSGHTCQHWSAQTPHTHNRTPENFPCKNLDENYCRNPDGKRAPWCHTTNSQVRWEYCKIPSCDSSPVSTEQLAPTAPPELTPVVQDCYHGDGQSYRGTSSTTTTGKKCQSWSSMTPHRHQKTPENYPNAGLTMNYCRNPDADKGPWCFTTDPSVRWEYCNLKKCSGTEASVVAPPPVVLLPDVETPSEEDCMFGNGKGYRGKRATTVTGTPCQDWAAQEPHRHSIFTPETNPRAGLEKNYCRNPDGDVGGPWCYTTNPRKLYDYCDVPQCAAPSFDCGKPQVEPKKCPGRVVGGCVAHPHSWPWQVSLRTRFGMHFCGGTLISPEWVLTAAHCLEKSPRPSSYKVILGAHQEVNLEPHVQEIEVSRLFLEPTRKDIALLKLSSPAVITDKVIPACLPSPNYVVADRTECFITGWGETQGTFGAGLLKEAQLPVIENKVCNRYEFLNGRVQSTELCAGHLAGGTDSCQGDSGGPLVCFEKDKYILQGVTSWGLGCARPNKPGVYVRVSRFVTWIEGVMRNN
Added pro-uPA converted during the experiment [1]: about 70%
First-order rate constant k ± SD [1]: 81.5 ± 14.2 10^−3 min^−1
Efficiency of pro-uPA activation compared to matriptase [1]: about 6 fold
